Experimental data as given in publication PMC7079959.

Molecular target: T1, MS2 bacteriophage coat protein (bacteriophage MS2), P03612
T1 chain: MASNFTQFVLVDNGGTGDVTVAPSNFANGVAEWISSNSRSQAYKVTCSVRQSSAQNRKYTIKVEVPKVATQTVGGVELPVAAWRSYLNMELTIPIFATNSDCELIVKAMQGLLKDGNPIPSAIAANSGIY
Assay: SEC
Conditions: remark: other sources report otherwise

B1: MS2 bacteriophage coat protein, P03612 1-130 (natural protein)
chain: MASNFTQFVLVDNGGTGDVTVAPSNFANGVAEWISSNSRSQAYKVTCSVRQSSAQNRKYTIKVEVPKVATQTVGGVELPVAAWRSYLNMELTIPIFATNSDCELIVKAMQGLLKDGNPIPSAIAANSGIY
- stoichiometry N: 2
